Results: patent publication US20120321699A1

Key:
[1] = target: HCV E2 (HCV); assay: Luminex assay, antibody 50 µg/ml
[2] = target: Influenza HA (Wisconsin) (influenza virus); assay: Luminex assay, antibody 50 µg/ml
[3] = target: Histone autoantigen; assay: Athena assay, mAb 25 ug/ml; positive >50
[4] = target: Jo 1 autoantigen; assay: Athena assay, mAb 25 ug/ml; positive >50
[5] = target: RNP autoantigen; assay: Athena assay, mAb 25 ug/ml; positive >50
[6] = target: SSA autoantigen; assay: Athena assay, mAb 25 ug/ml; positive >50
[7] = target: SSB autoantigen; assay: Athena assay, mAb 25 ug/ml; positive >50
[8] = target: Scl 70 autoantigen; assay: Athena assay, mAb 25 ug/ml; positive >50
[9] = target: Sm autoantigen; assay: Athena assay, mAb 25 ug/ml; positive >50
[10] = target: centromere B autoantigen; assay: Athena assay, mAb 25 ug/ml; positive >50
[11] = target: Histone autoantigen; assay: Athena assay, mAb 50 ug/ml; positive >50
[12] = target: Jo 1 autoantigen; assay: Athena assay, mAb 50 ug/ml; positive >50
[13] = target: RNP autoantigen; assay: Athena assay, mAb 50 ug/ml; positive >50
[14] = target: SSA autoantigen; assay: Athena assay, mAb 50 ug/ml; positive >50
[15] = target: SSB autoantigen; assay: Athena assay, mAb 50 ug/ml; positive >50
[16] = target: Scl 70 autoantigen; assay: Athena assay, mAb 50 ug/ml; positive >50
[17] = target: Sm autoantigen; assay: Athena assay, mAb 50 ug/ml; positive >50
[18] = target: centromere B autoantigen; assay: Athena assay, mAb 50 ug/ml; positive >50
[19] = target: Histone autoantigen; assay: Athena assay, mAb 12.5 ug/ml; positive >50
[20] = target: Jo 1 autoantigen; assay: Athena assay, mAb 12.5 ug/ml; positive >50
[21] = target: RNP autoantigen; assay: Athena assay, mAb 12.5 ug/ml; positive >50
[22] = target: SSA autoantigen; assay: Athena assay, mAb 12.5 ug/ml; positive >50
[23] = target: SSB autoantigen; assay: Athena assay, mAb 12.5 ug/ml; positive >50
[24] = target: Scl 70 autoantigen; assay: Athena assay, mAb 12.5 ug/ml; positive >50
[25] = target: Sm autoantigen; assay: Athena assay, mAb 12.5 ug/ml; positive >50
[26] = target: centromere B autoantigen; assay: Athena assay, mAb 12.5 ug/ml; positive >50
[27] = target: Histone autoantigen; assay: Athena assay, mAb 6.25 ug/ml; positive >50
[28] = target: Jo 1 autoantigen; assay: Athena assay, mAb 6.25 ug/ml; positive >50
[29] = target: RNP autoantigen; assay: Athena assay, mAb 6.25 ug/ml; positive >50
[30] = target: SSA autoantigen; assay: Athena assay, mAb 6.25 ug/ml; positive >50
[31] = target: SSB autoantigen; assay: Athena assay, mAb 6.25 ug/ml; positive >50
[32] = target: Scl 70 autoantigen; assay: Athena assay, mAb 6.25 ug/ml; positive >50
[33] = target: Sm autoantigen; assay: Athena assay, mAb 6.25 ug/ml; positive >50
[34] = target: centromere B autoantigen; assay: Athena assay, mAb 6.25 ug/ml; positive >50
[35] = target: A244gD+ gp120 (herpes simplex virus; HIV-1); assay: SPR
[36] = target: A244 gD- gp120 (HIV-1); assay: SPR
[37] = target: HV00044 (6240 TZ5 140C) (HIV-1); assay: SPR

Chain of A244gD+ gp120 (herpes simplex virus; HIV-1) (Q69091 26-52): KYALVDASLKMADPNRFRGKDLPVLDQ

Substance | background substracted RFUs [1] | background substracted RFUs [2] | Autoreactivity (Athena) [3] | Autoreactivity (Athena) [4] | Autoreactivity (Athena) [5] | Autoreactivity (Athena) [6] | Autoreactivity (Athena) [7] | Autoreactivity (Athena) [8] | Autoreactivity (Athena) [9] | Autoreactivity (Athena) [10] | Autoreactivity (Athena) [11] | Autoreactivity (Athena) [12] | Autoreactivity (Athena) [13] | Autoreactivity (Athena) [14] | Autoreactivity (Athena) [15] | Autoreactivity (Athena) [16] | Autoreactivity (Athena) [17] | Autoreactivity (Athena) [18] | Autoreactivity (Athena) [19] | Autoreactivity (Athena) [20] | other results
4E10 (antibody) | 89.2 RFU | 0 RFU | 274 | 138 | 15 | 247 | 206 | 4 | 7 | 19 | 333 | 156 | 20 | 306 | 254 | 3 | 9 | 31 | 160 | 87 | Autoreactivity (Athena) [21]: 9; Autoreactivity (Athena) [22]: 169; Autoreactivity (Athena) [23]: 124; Autoreactivity (Athena) [24]: 3; Autoreactivity (Athena) [25]: 5; Autoreactivity (Athena) [26]: 13; Autoreactivity (Athena) [27]: 113; Autoreactivity (Athena) [28]: 65; Autoreactivity (Athena) [29]: 6; Autoreactivity (Athena) [30]: 115; Autoreactivity (Athena) [31]: 93; Autoreactivity (Athena) [32]: 2; Autoreactivity (Athena) [33]: 4; Autoreactivity (Athena) [34]: 9
CH02 (antibody) | 333 RFU | 0.3 RFU | 11.5 | 1.5 | 9 | 6 | 4.5 | 2 | 3 | 9.5 | 15.5 | 2 | 12.5 | 5.5 | 4.5 | 2.5 | 3.5 | 12.5 | 8.5 | 1 | Kd [35]: 450 nM; Autoreactivity (Athena) [21]: 6; Autoreactivity (Athena) [22]: 5; Autoreactivity (Athena) [23]: 3.5; Autoreactivity (Athena) [24]: 1.5; Autoreactivity (Athena) [25]: 2.5; Autoreactivity (Athena) [26]: 7; Autoreactivity (Athena) [27]: 7; Autoreactivity (Athena) [28]: 1.5; Autoreactivity (Athena) [29]: 5; Autoreactivity (Athena) [30]: 5; Autoreactivity (Athena) [31]: 5; Autoreactivity (Athena) [32]: 2; Autoreactivity (Athena) [33]: 2.5; Autoreactivity (Athena) [34]: 6
CH03 (antibody) | 2910 RFU | 1 RFU | 386 | 4 | 70 | 6 | 4 | 7 | 10 | 34 | 844 | 5 | 132 | 9 | 7 | 12 | 24 | 98 | 359 | 4 | Kd [36]: 728 nM; Kd [35]: 15.6 nM; Kd [37]: 1060 nM; Autoreactivity (Athena) [21]: 74; Autoreactivity (Athena) [22]: 6; Autoreactivity (Athena) [23]: 6; Autoreactivity (Athena) [24]: 8; Autoreactivity (Athena) [25]: 9; Autoreactivity (Athena) [26]: 30; Autoreactivity (Athena) [27]: 231; Autoreactivity (Athena) [28]: 3; Autoreactivity (Athena) [29]: 51; Autoreactivity (Athena) [30]: 5; Autoreactivity (Athena) [31]: 5; Autoreactivity (Athena) [32]: 4; Autoreactivity (Athena) [33]: 7; Autoreactivity (Athena) [34]: 19
CH04 (antibody) | 0.5 RFU | 2.5 RFU | 16 | 3 | 6 | 11 | 8 | 2 | 2 | 13 | 26 | 5 | 9 | 19 | 11 | 3 | 3 | 18 | 11 | 2.5 | Kd [36]: 410 nM; Kd [35]: 25.5 nM; Kd [37]: 360 nM; Autoreactivity (Athena) [21]: 4; Autoreactivity (Athena) [22]: 7; Autoreactivity (Athena) [23]: 4.5; Autoreactivity (Athena) [24]: 2; Autoreactivity (Athena) [25]: 2.5; Autoreactivity (Athena) [26]: 8; Autoreactivity (Athena) [27]: 9.5; Autoreactivity (Athena) [28]: 2; Autoreactivity (Athena) [29]: 3; Autoreactivity (Athena) [30]: 6; Autoreactivity (Athena) [31]: 6; Autoreactivity (Athena) [32]: 1.5; Autoreactivity (Athena) [33]: 3; Autoreactivity (Athena) [34]: 6.5
CH05 (antibody) | 1.3 RFU | 5.5 RFU | 14 | 3.5 | 4.5 | 12.5 | 5.5 | 1.5 | 3 | 9 | 21.5 | 9 | 9 | 27 | 13 | 2 | 2.5 | 14.5 | 11 | 2.5 | Kd [36]: 340 nM; Kd [35]: 26.1 nM; Kd [37]: 1450 nM; Autoreactivity (Athena) [21]: 3.5; Autoreactivity (Athena) [22]: 8; Autoreactivity (Athena) [23]: 5; Autoreactivity (Athena) [24]: 1.5; Autoreactivity (Athena) [25]: 3.5; Autoreactivity (Athena) [26]: 6.5; Autoreactivity (Athena) [27]: 10; Autoreactivity (Athena) [28]: 2.5; Autoreactivity (Athena) [29]: 3; Autoreactivity (Athena) [30]: 7; Autoreactivity (Athena) [31]: 6; Autoreactivity (Athena) [32]: 1.5; Autoreactivity (Athena) [33]: 2.5; Autoreactivity (Athena) [34]: 6
Synagis (anti-RSV control mAb) (antibody) | 0.5 RFU | 1 RFU |  |  |  |  |  |  |  |  |  |  |  |  |  |  |  |  |  |  | 
